Residue numbers refer to the chain shown, from its start.
B1: pCART207, a variant IdeZ polypeptide (enzyme)
chain: MDDYQRNATEAYAKEVPHQITSVWTKGVTPPEQFTQGEDVIHAPYLAHQGWYDITKAFDGKDNLLCGAATAGNMLHWWFDQNKTEIEAYLSKHPEKQKIIFRNQELFDLKAAIDTKDSQTNSQLFNYFRDKAFPNLSARQLGVMPDLVLDMFINGYYLNVFKTQSTDVNRPYQDKDKRGGIFDAVFTRGDQTTLLTARHDLKNKGLNDISTIIKQELTEGRALALSHTYANVSISHVINLWGADFNAEGNLEAIYVTDSDANASIGMKKYFVGINAHGHVAISAKKIEGENIGAQVLGLFTLSSGKDIWQKLS
B2: N240, a variant IdeZ polypeptide of the invention (enzyme)
chain: B1 chain with D59N, N63D, D190N
B3: pCART229, a variant IdeZ polypeptide (enzyme)
chain: B1 chain with D190N
B4: pCART242, a variant IdeZ polypeptide of the invention (enzyme)
chain: MSVWTKGVTPPEQFTQGEDVIHAPYLAHQGWYDITKAFNGKDDLLCGAATAGNMLHWWFDQNKTEIEAYLSKHPEKQKIIFRNQELFDLKAAIDTKDSQTNSQLFNYFRDKAFPNLSARQLGVMPDLVLDMFINGYYLNVFKTQSTDVNRPYQDKDKRGGIFDAVFTRGNQTTLLTARHDLKNKGLNDISTIIKQELTEGRALALSHTYANVSISHVINLWGADFNAEGNLEAIYVTDSDANASIGMKKYFVGINAHGHVAISAKKIEGENIGAQVLGLFTLSSGKDIWQKLSGGGHHHHHH

Experiments:
Experiment in all cases: cell-based or functional assay
[1] = target: Humira (Abbvie), human IgG1
[2] = target: XGEVA (Amgen), human IgG2
[3] = target: human IgG3 from Sigma (15654 Lot #SLBW0899) (human)
[4] = target: human IgG4 from Abcam (ab90286 Lot #GR3180469) (human)
[5] = target: Humira (Abbvie), human IgG1; remark: listed apart in the source
[6] = target: XGEVA (Amgen), human IgG2; remark: listed apart in the source

Binder	Approximate EC50 value, i.e. equal amounts of scIgG and F(ab')2 (SDS-PAGE) [1] [µg/mL]	Conc. of enzyme for cleavage of 1st IgG1 heavy chain, IgG to scIgG (SDS-PAGE) [1] [ng/mL]	Conc. of enzyme for cleavage of 2nd IgG1 heavy chain, scIgG to F(ab')2 (SDS-PAGE) [1] [ng/mL]	Approximate EC50 value, i.e. equal amounts of scIgG and F(ab')2 (SDS-PAGE) [2] [µg/mL]	Conc. of enzyme for cleavage of 1st IgG2 heavy chain, IgG to scIgG (SDS-PAGE) [2] [ng/mL]	Conc. of enzyme for cleavage of 2nd IgG2 heavy chain, scIgG to F(ab)2 (SDS-PAGE) [2] [ng/mL]	IgG3 EC50 F(ab')2 (SDS-PAGE, visual estimate) [3] [µg/mL]	IgG3 EC50 scIgG (SDS-PAGE, visual estimate) [3] [µg/mL]	IgG4 EC50 F(ab')2 (SDS-PAGE, visual estimate) [4] [µg/mL]	IgG4 EC50 scIgG (SDS-PAGE, visual estimate) [4] [µg/mL]	IgG1 EC50 F(ab')2 (SDS-PAGE, visual estimate) [5] [µg/mL]	IgG1 EC50 scIgG (SDS-PAGE, visual estimate) [5] [µg/mL]	IgG2 EC50 F(ab')2 (SDS-PAGE, visual estimate) [6] [µg/mL]	IgG2 EC50 scIgG (SDS-PAGE, visual estimate) [6] [µg/mL]
B1	~0.04	~1.5	~120	~1.1	~40	~3300								
B2							0.015	0.007	0.062	0.002	0.014	0.0005	0.12	0.0046
B3	~0.04	~1.5	~120	~1.1	~40	~3300								
B4		~1.5	~40		~10	~400								

— US20260028608A1 (HANSA BIOPHARMA, published 2026)
